Assay results taken from the supplement of paper PMC7125110.
± gives the standard error. This sample holds only a part of the variants without activity.

B1: glmS ribozyme (parent)
chain: AUAAAAGCGCCAGAACUACAGAAAUGUAGUUGACGAGGAGGAGGUUUAUCGAAUUUUCGGCGGAUGCCUCCAAA

Variants of: B1
Assay: self-cleavage kobs at 2500 uM GlcN6P; higher = faster cleavage; RNA array
Conditions: with glucosamine-6-phosphate
Outline: (§1)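 Over ~14 h at 37 °C, tiles were imaged as glucosamine-6-phosphate (40 μM to 10 mM) in HEPES/KCl/Mg(OAc)2 buffer flowed across sequenced MiSeq chips. The chips carried barcoded ribozyme variants transcribed in situ by E. coli RNA polymerase and tracked with a hybridised Cy3 probe. After normalisation to baseline and to non-cleaving reference variants, one- or two-exponential decay fits of per-tile medians gave kobs. kcat and KM followed from weighted Michaelis–Menten fits across concentrations.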

Point of comparison: A14C U45A A64U, “self-cleavage kobs at 2500 uM GlcN6P” value 4.3e-05 ± 1.9e-05 s⁻¹. Against it:
- C16U A36U A39U A52U — lower, < 1e-05 s⁻¹
- A14U U46A A52U C58A — lower, < 1e-05 s⁻¹
- A14U G51U G60U — lower, < 1e-05 s⁻¹
- C16G A39C C61U G63C — lower, < 1e-05 s⁻¹
- A15U G44C A53U C58G C70U — lower, < 1e-05 s⁻¹
- A15G G44U C50U A64U — lower, < 1e-05 s⁻¹
- G29U G44U G59U C67A — lower, < 1e-05 s⁻¹
- A15C U31A A53G C71G — 5.2-fold higher, 0.000222 ± 4.5e-05 s⁻¹
- A15C G66U U69C — within error, 4.52e-05 ± 1.5e-05 s⁻¹
- G13U C16U A39U A53G — 8.3-fold higher, 0.000359 ± 0.00012 s⁻¹
- G13C U30C C71G — within error, 4.16e-05 ± 2.1e-05 s⁻¹
- U31C G37A G59A C61U G66A — lower, < 1e-05 s⁻¹
- U30A A42C U45G U65G C70G — 18-fold higher, 0.000761 ± 0.00026 s⁻¹
- U31C A33U U46A U57C C70U C71G — lower, < 1e-05 s⁻¹
- A14U A15G G32U U57G U69A — 6.6-fold higher, 0.000285 ± 0.00012 s⁻¹
- A15U A48G G51U — lower, < 1e-05 s⁻¹
- A14U C34A A48G C68G C71A — lower, < 1e-05 s⁻¹
- U31C U56G C67A — within error, 6.88e-05 ± 1.8e-05 s⁻¹
- U31G A48U A52C — lower, < 1e-05 s⁻¹
- C16U A36U G38C G60C — lower, < 1e-05 s⁻¹
- U31G A39U A64C — within error, 6.17e-05 ± 2.3e-05 s⁻¹
- A14G U45G C71U — 49-fold higher, 0.0021 ± 0.0006 s⁻¹
- G13U A36U A53C — lower, < 1e-05 s⁻¹
- A15U G43U A53U C68U — within error, 8.35e-05 ± 3.5e-05 s⁻¹
- C16A G43U A53U G60A C68A — lower, < 1e-05 s⁻¹
- G13U G35A U57A U65G — lower, < 1e-05 s⁻¹
- A15C G32A U69A — 2.4-fold higher, 0.000103 ± 3.2e-05 s⁻¹
- U31G U56A G66U — within error, 7.04e-05 ± 1.3e-05 s⁻¹
- A15G U55G C71U — 86-fold higher, 0.00368 ± 0.0014 s⁻¹
- C16U A39U G44U C67A — 360-fold higher, 0.0154 ± 0.0045 s⁻¹
- C16A G32A G37U — lower, < 1e-05 s⁻¹
- A14U A33U A53C G63U — lower, < 1e-05 s⁻¹
- C16U U57A — within error, 6.81e-05 ± 2.8e-05 s⁻¹
- U31G G32C G66A — 2.5-fold higher, 0.000109 ± 2.1e-05 s⁻¹
- A15G A36U G43C — lower, < 1e-05 s⁻¹
- A15C A42G C67U — 9-fold higher, 0.000389 ± 9.9e-05 s⁻¹
- U31A C34A C71U — lower, < 1e-05 s⁻¹
- A14C A15U C61U C67A — lower, < 1e-05 s⁻¹
- G13U U47G U54A G62A — lower, < 1e-05 s⁻¹
- A14U U45G U47A U54C G62U — lower, < 1e-05 s⁻¹
- A14C A39C C71U — within error, 4.93e-05 ± 1.7e-05 s⁻¹
- C16U C50G U55C — within error, 7.17e-05 ± 2.1e-05 s⁻¹
- U30G A42G U65G C67U — 2.4-fold higher, 0.000104 ± 3.7e-05 s⁻¹
- U31G C68U C71U — within error, 7.95e-05 ± 3.1e-05 s⁻¹
- G32A U69C — 4.4-fold higher, 0.000191 ± 7.8e-05 s⁻¹
- A14G A36U A39C — lower, < 1e-05 s⁻¹
- G29C G51U C67G — within error, 5.96e-05 ± 2.8e-05 s⁻¹
- A14U A42C U54A — lower, < 1e-05 s⁻¹
- U30C G37C G38C — lower, < 1e-05 s⁻¹
- C16G U30G A39U — within error, 4.31e-05 ± 2e-05 s⁻¹
- U30C G40A G43A C68A — lower, < 1e-05 s⁻¹
- G29A U31G U54G — within error, 6.58e-05 ± 3.2e-05 s⁻¹
- G13U U31G G37C A48C — lower, < 1e-05 s⁻¹
- U31G A36U C50A C71G — 6.2-fold higher, 0.000265 ± 0.00012 s⁻¹
- U30G G38A U46G — lower, < 1e-05 s⁻¹
- G13U A42C U47C U57C — lower, < 1e-05 s⁻¹
- A14G G29A G44A — within error, 6.19e-05 ± 2.1e-05 s⁻¹
- C16G G40U U69G — lower, < 1e-05 s⁻¹
- C16G G40U U55A G60U — 23-fold higher, 0.000989 ± 0.00047 s⁻¹
- A14C C16U C68G — 2.2-fold higher, 9.4e-05 ± 2.8e-05 s⁻¹
- A15G G32A G35U A52C — lower, < 1e-05 s⁻¹
- G13U C34U A39G G62A — lower, < 1e-05 s⁻¹
- U31G G44C G59C — lower, < 1e-05 s⁻¹
- A15U U30G C68G — within error, 4.51e-05 ± 1.8e-05 s⁻¹
- U30G G41C C58U — lower, < 1e-05 s⁻¹
- U31C A64C U65G — lower, < 1e-05 s⁻¹
- A14C U30C G32A C58G — within error, 7.82e-05 ± 3.2e-05 s⁻¹
- G13U A48G U57G — lower, < 1e-05 s⁻¹
- A15G A48C C50U — lower, < 1e-05 s⁻¹
- C16A A33U A52U — lower, < 1e-05 s⁻¹
- G13U A48C C61A — lower, < 1e-05 s⁻¹
- U30C U55A U69G — 1.8-fold higher, 7.73e-05 ± 1.4e-05 s⁻¹
- A14G A33G A36U A42U U46A — lower, < 1e-05 s⁻¹
- G29U G37A G38C G60U — lower, < 1e-05 s⁻¹
- G29U A33C G44C — 7.6-fold higher, 0.000325 ± 0.00014 s⁻¹
- C16U U46C C61G — lower, < 1e-05 s⁻¹
- G26U U30A A52G C71G — 7-fold higher, 0.000299 ± 0.00014 s⁻¹

Variants of: B1
Assay: self-cleavage kobs at 10000 uM GlcN6P; higher = faster cleavage; RNA array
Conditions: with glucosamine-6-phosphate
Outline: as §1

Point of comparison: C16G U30G A39U, “self-cleavage kobs at 10000 uM GlcN6P” value 0.000103 ± 2.8e-05 s⁻¹. Against it:
- U31C G37A G59A C61U G66A — lower, < 1e-05 s⁻¹
- A14U C34A A48G C68G C71A — 2.2-fold higher, 0.000226 ± 7.7e-05 s⁻¹
- U31G A39U A64C — 2.1-fold lower, 4.91e-05 ± 1.3e-05 s⁻¹
- G13U A36U A53C — lower, < 1e-05 s⁻¹
- G13U G35A U57A U65G — lower, < 1e-05 s⁻¹
- C16U U57A — 1.9-fold higher, 0.000194 ± 4.1e-05 s⁻¹
- G32A U69C — 7-fold higher, 0.000717 ± 0.00016 s⁻¹
- U30C G37C G38C — lower, < 1e-05 s⁻¹
- G13U A42C U47C U57C — lower, < 1e-05 s⁻¹
